Assay results published in publication PMC9482650, “Quantitative fragmentomics allow affinity mapping of interactomes” (Nature Communications, 2022).

Experiments:
Assay in all cases: holdup assay
Design in all cases: key: below the threshold = too weak to quantify, mostly under pKd 3.1 to 4
Conditions in all cases: plain residues with an end cap or a label only (N-terminal biotin on a linker: ttds)
SHANK2, Q9UPX8 = molecular target: T1, SHANK2, Q9UPX8
T1 sequence (Q9UPX8 621-730, limits assumed, looked up): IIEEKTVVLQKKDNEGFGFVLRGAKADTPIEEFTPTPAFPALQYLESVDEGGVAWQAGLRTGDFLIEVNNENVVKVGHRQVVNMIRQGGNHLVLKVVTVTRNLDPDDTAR

RIMS1, Q86UR5 = molecular target: RIMS1, Q86UR5
RIMS1, Q86UR5, sequence (Q86UR5 584-692): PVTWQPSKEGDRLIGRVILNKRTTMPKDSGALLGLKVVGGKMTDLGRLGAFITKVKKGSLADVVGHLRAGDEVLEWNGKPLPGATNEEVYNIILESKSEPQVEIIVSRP

MAGI1_6, Q96QZ7 = molecular target: MAGI1_6, Q96QZ7
MAGI1_6, Q96QZ7, sequence (Q96QZ7 1146-1238): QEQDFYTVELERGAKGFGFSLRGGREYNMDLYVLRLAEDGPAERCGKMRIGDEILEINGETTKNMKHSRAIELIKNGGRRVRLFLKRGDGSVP

PDZD8, Q8NEN9 = molecular target: T2, PDZD8, Q8NEN9
T2 sequence (Q8NEN9 361-459, limits assumed, looked up): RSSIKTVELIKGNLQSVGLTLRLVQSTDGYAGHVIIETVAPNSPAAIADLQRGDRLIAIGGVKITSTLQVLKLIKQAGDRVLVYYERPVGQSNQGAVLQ

MAGI1_4, Q96QZ7 = molecular target: MAGI1_4, Q96QZ7
MAGI1_4, Q96QZ7, sequence (Q96QZ7 other isoform, or with tags, fused parts or gaps): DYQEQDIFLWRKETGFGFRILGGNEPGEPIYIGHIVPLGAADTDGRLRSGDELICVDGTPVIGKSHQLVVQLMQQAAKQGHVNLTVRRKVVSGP

PTPN4, P29074 = molecular target: T3, PTPN4, P29074
T3 sequence (P29074 512-599, limits assumed, looked up): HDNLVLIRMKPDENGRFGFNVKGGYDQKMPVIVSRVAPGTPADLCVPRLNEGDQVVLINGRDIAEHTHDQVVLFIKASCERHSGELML

USH1C_3, Q9Y6N9 = molecular target: T4, USH1C_3, Q9Y6N9
T4 sequence (Q9Y6N9 447-547, limits assumed, looked up): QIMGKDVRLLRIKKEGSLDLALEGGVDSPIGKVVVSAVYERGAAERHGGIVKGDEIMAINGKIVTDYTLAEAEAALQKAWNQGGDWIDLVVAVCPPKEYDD

SYNPO2L, Q9H987 = molecular target: T5, SYNPO2L, Q9H987
T5 sequence (Q9H987 1-98, limits assumed, looked up): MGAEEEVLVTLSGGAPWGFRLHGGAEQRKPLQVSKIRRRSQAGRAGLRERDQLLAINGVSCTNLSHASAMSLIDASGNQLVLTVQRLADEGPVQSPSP

NHERF1_2, O14745 = molecular target: T6, NHERF1_2, O14745
T6 sequence (O14745 149-244, limits assumed, looked up): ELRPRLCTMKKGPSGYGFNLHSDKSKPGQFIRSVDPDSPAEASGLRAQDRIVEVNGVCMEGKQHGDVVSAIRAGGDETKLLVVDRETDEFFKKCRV

SIPA1L3, O60292 = molecular target: T7, SIPA1L3, O60292
T7 sequence (O60292 961-1052, limits assumed, looked up): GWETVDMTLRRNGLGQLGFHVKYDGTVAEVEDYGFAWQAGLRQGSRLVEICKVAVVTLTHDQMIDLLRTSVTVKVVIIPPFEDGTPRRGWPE

TJP3_2, O95049 = molecular target: T8, TJP3_2, O95049
T8 sequence (O95049 190-282, limits assumed, looked up): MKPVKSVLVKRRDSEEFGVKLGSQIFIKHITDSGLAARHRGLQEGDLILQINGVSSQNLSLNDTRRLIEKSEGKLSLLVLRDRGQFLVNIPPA

PDZRN3_2, Q9UPQ7 = molecular target: T9, PDZRN3_2, Q9UPQ7
T9 sequence (Q9UPQ7 414-513, limits assumed, looked up): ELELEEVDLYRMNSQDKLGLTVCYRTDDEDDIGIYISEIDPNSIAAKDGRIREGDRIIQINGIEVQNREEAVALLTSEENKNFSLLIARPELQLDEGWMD

CNKSR3, Q6P9H4 = molecular target: CNKSR3, Q6P9H4
CNKSR3, Q6P9H4, sequence (Q6P9H4 203-303): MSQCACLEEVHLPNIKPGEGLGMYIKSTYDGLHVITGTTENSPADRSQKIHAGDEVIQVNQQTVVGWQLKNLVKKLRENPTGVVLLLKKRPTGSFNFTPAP

NHERF4_3, Q86UT5 = molecular target: NHERF4_3, Q86UT5
NHERF4_3, Q86UT5, sequence (Q86UT5 325-412): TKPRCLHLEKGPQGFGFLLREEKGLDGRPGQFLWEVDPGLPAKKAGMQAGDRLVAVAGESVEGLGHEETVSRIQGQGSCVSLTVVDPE

SDCBP_1, O00560 = molecular target: SDCBP_1, O00560
SDCBP_1, O00560, sequence (O00560 111-198): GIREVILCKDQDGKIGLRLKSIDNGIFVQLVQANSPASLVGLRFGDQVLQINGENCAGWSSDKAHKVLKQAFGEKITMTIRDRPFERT

MPDZ_3, O75970 = molecular target: T10, MPDZ_3, O75970
T10 sequence (O75970 372-473, limits assumed, looked up): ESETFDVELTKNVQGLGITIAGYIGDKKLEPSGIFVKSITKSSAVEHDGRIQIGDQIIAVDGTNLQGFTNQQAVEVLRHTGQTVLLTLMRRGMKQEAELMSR

GIPC3, Q8TF64 = molecular target: GIPC3, Q8TF64
GIPC3, Q8TF64, sequence (Q8TF64 107-202): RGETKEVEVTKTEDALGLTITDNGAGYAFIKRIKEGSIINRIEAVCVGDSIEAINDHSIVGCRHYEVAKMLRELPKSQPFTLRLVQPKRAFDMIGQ

PTPN13_5, Q12923 = molecular target: T11, PTPN13_5, Q12923
T11 sequence (Q12923 1877-1975, limits assumed, looked up): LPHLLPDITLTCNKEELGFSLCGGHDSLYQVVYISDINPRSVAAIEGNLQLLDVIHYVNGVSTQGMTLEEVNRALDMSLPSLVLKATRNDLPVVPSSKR

PDLIM4, P50479 = molecular target: PDLIM4, P50479
PDLIM4, P50479, sequence (P50479 1-83): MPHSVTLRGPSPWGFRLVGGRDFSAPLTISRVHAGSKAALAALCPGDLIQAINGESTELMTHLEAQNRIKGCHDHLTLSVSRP

MAGI1_3, Q96QZ7 = molecular target: MAGI1_3, Q96QZ7
MAGI1_3, Q96QZ7, sequence (Q96QZ7 638-725): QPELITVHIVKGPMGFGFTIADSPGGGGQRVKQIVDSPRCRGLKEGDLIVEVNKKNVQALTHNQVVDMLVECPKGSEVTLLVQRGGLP

AHNAK2, Q8IVF2 = molecular target: AHNAK2, Q8IVF2
AHNAK2, Q8IVF2, sequence (Q8IVF2 108-193): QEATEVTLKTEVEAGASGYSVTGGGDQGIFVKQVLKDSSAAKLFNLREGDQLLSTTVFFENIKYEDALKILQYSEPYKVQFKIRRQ

Inadl_7, Q8NI35 = molecular target: Inadl_7, Q8NI35
Inadl_7, Q8NI35, sequence (Q8NI35 1219-1332): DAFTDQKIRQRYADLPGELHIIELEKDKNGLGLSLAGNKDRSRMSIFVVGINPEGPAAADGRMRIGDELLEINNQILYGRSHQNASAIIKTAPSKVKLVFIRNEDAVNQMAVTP

DLG2_1, Q15700 = molecular target: DLG2_1, Q15700
INTU, Q9ULD6 = molecular target: T12, INTU, Q9ULD6
T12 sequence (Q9ULD6 180-273, limits assumed, looked up): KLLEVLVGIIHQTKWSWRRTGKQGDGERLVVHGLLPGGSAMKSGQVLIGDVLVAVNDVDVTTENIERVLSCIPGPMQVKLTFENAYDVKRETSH

PARD6B, Q9BYG5 = molecular target: T13, PARD6B, Q9BYG5
T13 sequence (Q9BYG5 152-260, limits assumed, looked up): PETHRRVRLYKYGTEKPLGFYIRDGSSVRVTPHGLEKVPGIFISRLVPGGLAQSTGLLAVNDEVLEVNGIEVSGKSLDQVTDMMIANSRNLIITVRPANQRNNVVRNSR

B1: RASSF6, Q6ZTQ3 (peptide)
chain: KLVIKTETTV
pKd (SHANK2, Q9UPX8): below the threshold
pKd (RIMS1, Q86UR5): below the threshold
pKd (MAGI1_6, Q96QZ7): below the threshold
pKd (PDZD8, Q8NEN9): below the threshold
pKd (MAGI1_4, Q96QZ7): below the threshold
pKd (PTPN4, P29074): 4.33
pKd (USH1C_3, Q9Y6N9): below the threshold
pKd (SYNPO2L, Q9H987): below the threshold
pKd (NHERF1_2, O14745): below the threshold
pKd (SIPA1L3, O60292): below the threshold
pKd (TJP3_2, O95049): below the threshold
pKd (PDZRN3_2, Q9UPQ7): below the threshold
pKd (CNKSR3, Q6P9H4): below the threshold
pKd (NHERF4_3, Q86UT5): below the threshold
pKd (SDCBP_1, O00560): below the threshold
pKd (MPDZ_3, O75970): below the threshold
pKd (GIPC3, Q8TF64): below the threshold
pKd (PTPN13_5, Q12923): below the threshold
pKd (PDLIM4, P50479): 4.09
pKd (MAGI1_3, Q96QZ7): 4.32
pKd (AHNAK2, Q8IVF2): below the threshold
pKd (Inadl_7, Q8NI35): 4.51
pKd (DLG2_1, Q15700): 4.95
pKd (INTU, Q9ULD6): below the threshold
pKd (PARD6B, Q9BYG5): below the threshold

B2: RALBP1, Q15311 (peptide)
chain: PSRDRKETSI
pKd (SHANK2, Q9UPX8): below the threshold
pKd (RIMS1, Q86UR5): below the threshold
pKd (MAGI1_6, Q96QZ7): below the threshold
pKd (PDZD8, Q8NEN9): below the threshold
pKd (MAGI1_4, Q96QZ7): below the threshold
pKd (PTPN4, P29074): 3.83
pKd (USH1C_3, Q9Y6N9): below the threshold
pKd (SYNPO2L, Q9H987): below the threshold
pKd (NHERF1_2, O14745): below the threshold
pKd (SIPA1L3, O60292): below the threshold
pKd (TJP3_2, O95049): below the threshold
pKd (PDZRN3_2, Q9UPQ7): below the threshold
pKd (CNKSR3, Q6P9H4): below the threshold
pKd (NHERF4_3, Q86UT5): below the threshold
pKd (SDCBP_1, O00560): below the threshold
pKd (MPDZ_3, O75970): below the threshold
pKd (GIPC3, Q8TF64): below the threshold
pKd (PTPN13_5, Q12923): below the threshold
pKd (PDLIM4, P50479): below the threshold
pKd (MAGI1_3, Q96QZ7): below the threshold
pKd (AHNAK2, Q8IVF2): below the threshold
pKd (Inadl_7, Q8NI35): 4.36
pKd (DLG2_1, Q15700): 4.34
pKd (INTU, Q9ULD6): below the threshold
pKd (PARD6B, Q9BYG5): below the threshold
